Test results reported in paper PMC3092763, “Urate Oxidase Purification by Salting-in Crystallization: Towards an Alternative to Chromatography” (PLoS ONE, 2011).

Target: the molecule itself
Test: SEC; analytical SEC of the pools of the downstream process; Superdex 200 GL, 50 mM sodium phosphate buffer pH 8, UV detection at 226 and 280 nm; column calibrated with seven proteins of 13.7 to 669 kDa; oligomer size from the calibration (with IEF profile and activity test as support)

B1: recombinant urate oxidase from Aspergillus flavus (rasburicase) (enzyme, UniProt Q00511 1-302, looked up)
chain: MSAVKAARYGKDNVRVYKVHKDEKTGVQTVYEMTVCVLLEGEIETSYTKADNSVIVATDSIKNTIYITAKQNPVTPPELFGSILGTHFIEKYNHIHAAHVNIVCHRWTRMDIDGKPHPHSFIRDSEEKRNVQVDVVEGKGIDIKSSLSGLTVLKSTNSQFWGFLRDEYTTLKETWDRILSTDVDATWQWKNFSGLQEVRSHVPKFDATWATAREVTLKTFAEDNSASVQATMYKMAEQILARQQLIETVEYSLPNKHYFEIDLSWHKGLQNTGKNAEVFAPQSDPNGLIKCTVGRSSLKSKL
notes: urate oxidase (uricase, EC 1.7.3.3) from Aspergillus flavus, recombinant form (rasburicase); subunit of about 34 kDa, 135 kDa tetramer of identical subunits; Several isoforms are seen by IEF even in the purest pool; also called Fasturtec; Elitek; source: expressed in a genetically modified Saccharomyces cerevisiae strain; supplied by Sanofi-Aventis, sampled at different steps of the downstream …
stoichiometry N: 4
